Assay results taken from patent US20260265360A1, “USE OF ANTI-FAM19A5 ANTAGONISTS FOR TREATING HEARING DISORDERS” (NEURACLE SCIENCE CO., LTD., priority 2023, published 2026).

What was measured:
aged mice = experiment: Age-related hearing loss in aged mice; type: in vivo, mouse; details: for ABR threshold vs control animals: 30 mg/kg i.v. weekly for eight weeks
Description: FIGS. 17A, 17B, 17C, and 17D show the therapeutic effect of FAM19A5 antagonists (1-30) on auditory brainstem response (ABR) threshold in an aged mouse model. FIG. 17A provides a schematic of the experimental design. As shown, anti-FAM19A5 antibody (1-30) or control human IgG antibody was administered to the mice (1-year old) intravenously once a week (30 mg/kg per dose) for a total of eight administrations. ABR (i.e., hearing test) was measured both prior to the initial administration of the antibodies and then at one and two months after administration. FIG. 17B provides the results before injection. FIG. 17C provides the results at one month post administration. FIG. 17D provides the results at two months post administration. In each of FIGS. 16B-16D, ABR threshold was measured at a frequency ranging from 4 kHz to 64 kHz.
FIGS. 18A, 18B, and 18C show the therapeutic effect of FAM19A5 antagonists (1-30) as comparison of wave I amplitude profile in an aged mouse model. The mice were treated as shown and described in FIG. 17A. FIG. 18A provides the results before injection. FIG. 18B provides the results at one month post injection. FIG. 18C provides the results at two months post injection. Tone bursts were measured across 0 and 90 dB.
Next, to assess whether the FAM19A5 antagonists provided herein can also treat age-related hearing loss, aged mice (e.g., about 6 months to 1 year in age) were used. […] Then, various hearing parameters (e.g., ABR threshold, DPOAE amplitude, and ABR waveform analysis) were assessed in the animals at one and two months after initial administration.

[1] = test system: inner hair cells of mouse cochlear explant; experiment: Reversal of FAM19A5-induced inhibition of synaptogenesis (CtBP2 puncta); type: cell-based; details: 1 μM FAM19A5 protein plus anti-FAM19A5 antibody, treated 1 DIV, stained 2 DIV
Description: Cochlear explant were cultured in medium consisting of plating media, which consist of Neurobasal media (Invitrogen), 1% N2 supplement, and 10 μg/mL Ampicillin with culture media with additional 1% FBS.
Postnatal day 4-5 (P4-5) C57BL/6 mice were sacrificed for inner ear dissection. Mouse head was bisected, and brain tissue was removed. Cochlea was carefully separated the from the extraneous bones in ice-cold HBSS (5 mM HEPES/1.3 mM CaCl2), 0.9 mM MgCl2, pH 7.4) or External solution (1.2 mM CaCl2), 1 mM MgCl2, 5 mM HEPES in HBSS). Then the stria vascularis and spiral bone plate was removed, and cochlea was cut into two to three sections. […]
Mouse cochlear explant cultures were treated with FAM19A5, FAM19A5 combined with a FAM19A5 antagonist (e.g., described herein, e.g., 1-30 antibody), or a FAM19A5 antagonist (e.g., described herein, e.g., 1-30 antibody) alone at 1 DIV to determine the level of synaptogenesis at 2 DIV by immunostaining CtBP2, a ribbon synapse marker. To quantify the number of CtBP2 puncta of individual inner hair cells, z-stack confocal images were exported in “multi-page” and the number of CtBP2 puncta from each individual inner hair cells were measured using ROI manger and multi-point tool from Fiji (Image J). Number of CtBP2 puncta from five individual inner hair cells were counted per image and 3 z-stack images were measured from each treatment group. […]

B1: 1-30: anti-FAM19A5 antibody, de-immunized variant of 3-2; VH SEQ ID NO: 235, VL SEQ ID NO: 240 (antibody, V domains shown)
VH: AVTLDESGGGLQTPGGALRLSCKASGFDFESFNMFWVRQAPGKGLEYVSQISSSEEDENYAPAVKGRATISRDNGQSTLYLQMNSLRAEDTGTYYCAKSSYDCPYGHCSSGVDSAGEIDAWGHGTEVIVSS
VL: ALTQPSSVSANPGETVKITCSGGGSEEEQYYYGWYQQKPGSAPVTLIYQDEERPSDIPSRFSGSTSGSTATLTITGVQAGDEADYYCGSWDSEDEDHFGAGTTLTVL
modifications: Low-PI VH, 1-30 VH, 1-17 VH, 1-32 VH, 4-11 VH, 6-10 VH; 1-30 VL
wave I amplitude vs control animals (aged mice; general trend, results not statistically significant): decreased wave I amplitude | ABR threshold vs control animals (aged mice; one-month post administration): significantly decreased | ABR threshold vs control animals (aged mice; two-month post administration): significantly decreased | number of CtBP2 puncta in inner hair cells [1]: increased (as compared to the FAM19A5 protein alone group) and comparable to that of the control group
